From patent US20240376151A1, “STAPLED PEPTIDES AND METHODS THEREOF” (FOG PHARMACEUTICALS, INC., priority 2022, published 2024)
Numbered stars: 1 amine (or outer) side, 2 acyl side, 3 side chain; on linkers, the order of the positions; unused ones are H or OH. Bridge positions count the residues as written; N and C are the ends. Ends that are not written are not given here. Phenylene(1,4-NHCOCH2)2 = O=C(C[*:1])Nc1ccc(NC(=O)C[*:2])cc1

Target: T1, WWP2^HECT (Homo sapiens, UniProt O00308)
T1 construct: GST-TEV (N, cleaved yes); made in house; host or cells: Escherichia coli BL21 (DE3)
Experiment: Naive Library Presenter Screening (phage, NGS), WWP2^HECT
Type: binding
Details: for interaction data at Target Concentration 10: WWP2 target concentration 10 nM; for interaction data at Target Concentration 30: WWP2 target concentration 30 nM; for interaction data at Target Concentration 100: WWP2 target concentration 100 nM; for interaction data at Target Concentration 300: WWP2 target concentration 300 nM; for interaction data at Target Concentration 1000: WWP2 target concentration 1000 nM

T1 sequence (O00308 492-865): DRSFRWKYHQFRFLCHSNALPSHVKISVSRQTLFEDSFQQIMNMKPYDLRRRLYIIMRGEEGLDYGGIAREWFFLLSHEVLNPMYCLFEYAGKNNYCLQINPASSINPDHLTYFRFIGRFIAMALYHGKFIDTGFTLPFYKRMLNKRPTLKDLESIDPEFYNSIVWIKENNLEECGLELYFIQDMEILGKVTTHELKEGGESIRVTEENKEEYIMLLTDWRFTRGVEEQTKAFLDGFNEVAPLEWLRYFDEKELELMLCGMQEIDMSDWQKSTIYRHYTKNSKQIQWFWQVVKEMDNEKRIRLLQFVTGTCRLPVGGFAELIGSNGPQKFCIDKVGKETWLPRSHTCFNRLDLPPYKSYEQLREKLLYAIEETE

Row | interaction data at Target Concentration 10 | interaction data at Target Concentration 30 | interaction data at Target Concentration 100 | interaction data at Target Concentration 300 | interaction data at Target Concentration 1000 (first column) | interaction data at Target Concentration 1000 (second column) | Sequence
1 | 8 | 159 | 267 | 241 | 232 | 373 | DPAQDTCRAAADTCAFF (DPAQDTCRAAADTCAFF-NH2; linker 7-14 via Phenylene(1,4-NHCOCH2)2; N-terminus assumed; SMILES C[C@@H]1NC(=O)[C@H](C)NC(=O)[C@H](CCCNC(=N)N)NC(=O)[C@@H](NC(=O)[C@@H](NC(=O)[C@H](CC(=O)O)NC(=O)[C@H](CCC(N)=O)NC(=O)[C@H](C)NC(=O)[C@@H]2CCCN2C(=O)[C@@H](N)CC(=O)O)[C@@H](C)O)CSCC(=O)Nc2ccc(cc2)NC(=O)CSC[C@@H](C(=O)N[C@@H](C)C(=O)N[C@@H](Cc2ccccc2)C(=O)N[C@@H](Cc2ccccc2)C(N)=O)NC(=O)[C@H]([C@@H](C)O)NC(=O)[C@H](CC(=O)O)NC(=O)[C@H](C)NC1=O)
2 | 1 | 0 | 12 | 60 | 40 | 75 | DPATWDCNVAAHRCWFL (linker 7-14 via Phenylene(1,4-NHCOCH2)2 (inferred); not fully specified (C-terminus))
3 | 0 | 0 | 88 | 86 | 97 | 107 | DPAVWECRWAAFQCWLD (linker 7-14 via Phenylene(1,4-NHCOCH2)2 (inferred); not fully specified (C-terminus))
4 | 59 | 97 | 107 | 147 | 101 | 141 | DPAYHHCLAAADLCSFF
5 | 4 | 38 | 24 | 49 | 47 | 76 | DPALWHCLAAAETCAMF (linker 7-14 via Phenylene(1,4-NHCOCH2)2; not fully specified (C-terminus))
6 | 0 | 47 | 26 | 37 | 59 | 123 | DPALLHCMAAAQTCSFF (linker 7-14 via Phenylene(1,4-NHCOCH2)2; not fully specified (C-terminus))
7 | 6 | 83 | 76 | 103 |  | 123 | DPARVNCHAAADTCFFF (linker 7-14 via Phenylene(1,4-NHCOCH2)2)
8 | 0 | 1 | 4 | 8 | 12 | 12 | DPATWDCRNAAWLCLLN (linker 7-14 via Phenylene(1,4-NHCOCH2)2 (inferred); not fully specified (C-terminus))
9 | 0 | 65 | 96 | 109 | 117 | 127 | DPAIQNCRSAADVCMFF (linker 7-14 via Phenylene(1,4-NHCOCH2)2; not fully specified (C-terminus))
10 | 87 | 318 | 384 | 608 | 419 | 565 | DPALIHCRAAADTCAFW (linker 7-14 via Phenylene(1,4-NHCOCH2)2; not fully specified (C-terminus))
11 | 0 | 0 | 1 | 4 | 9 | 13 | DPATWDCIWAAERCWRY (linker 7-14 via Phenylene(1,4-NHCOCH2)2 (inferred); not fully specified (C-terminus))
12 | 43 | 87 | 89 | 139 | 127 | 194 | DPAIHSCYAAAETCQFF (linker 7-14 via Phenylene(1,4-NHCOCH2)2 (inferred))
13 | 0 | 0 | 0 | 24 | 35 | 27 | DPALWECRNAAWQCWMH (linker 7-14 via Phenylene(1,4-NHCOCH2)2; not fully specified (C-terminus))
14 | 0 | 0 | 0 | 8 | 7 | 28 | DPAMWSCRYAAWECWVL (DPAMWSCRYAAWECWVL-NH2; linker 7-14 via Phenylene(1,4-NHCOCH2)2; N-terminus assumed; SMILES CSCC[C@H](NC(=O)[C@H](C)NC(=O)[C@@H]1CCCN1C(=O)[C@@H](N)CC(=O)O)C(=O)N[C@@H](Cc1c[nH]c2ccccc12)C(=O)N[C@@H](CO)C(=O)N[C@H]1CSCC(=O)Nc2ccc(cc2)NC(=O)CSC[C@@H](C(=O)N[C@@H](Cc2c[nH]c3ccccc23)C(=O)N[C@H](C(=O)N[C@@H](CC(C)C)C(N)=O)C(C)C)NC(=O)[C@H](CCC(=O)O)NC(=O)[C@H](Cc2c[nH]c3ccccc23)NC(=O)[C@H](C)NC(=O)[C@H](C)NC(=O)[C@H](Cc2ccc(O)cc2)NC(=O)[C@H](CCCNC(=N)N)NC1=O)
15 | 0 | 0 | 0 | 8 | 12 | 20 | DPAIWDCLYAATNCYIN (linker 7-14 via Phenylene(1,4-NHCOCH2)2; not fully specified (C-terminus))
16 | 0 | 0 | 6 | 23 | 62 | 24 | DPAMWDCRYAALDCYMT (DPAMWDCRYAALDCYMT-NH2; linker 7-14 via Phenylene(1,4-NHCOCH2)2; N-terminus assumed; SMILES CSCC[C@H](NC(=O)[C@H](C)NC(=O)[C@@H]1CCCN1C(=O)[C@@H](N)CC(=O)O)C(=O)N[C@@H](Cc1c[nH]c2ccccc12)C(=O)N[C@@H](CC(=O)O)C(=O)N[C@H]1CSCC(=O)Nc2ccc(cc2)NC(=O)CSC[C@@H](C(=O)N[C@@H](Cc2ccc(O)cc2)C(=O)N[C@@H](CCSC)C(=O)N[C@H](C(N)=O)[C@@H](C)O)NC(=O)[C@H](CC(=O)O)NC(=O)[C@H](CC(C)C)NC(=O)[C@H](C)NC(=O)[C@H](C)NC(=O)[C@H](Cc2ccc(O)cc2)NC(=O)[C@H](CCCNC(=N)N)NC1=O)
17 | 0 | 0 | 0 | 6 | 23 | 15 | DPATWACINAAHNCWRN (DPATWACINAAHNCWRN-NH2; linker 7-14 via Phenylene(1,4-NHCOCH2)2 (inferred))
18 | 0 |  | 2 | 11 | 66 | 34 | DPAAWDCRYAALACYIH (linker 7-14 via Phenylene(1,4-NHCOCH2)2 (inferred))
19 | 0 | 0 | 0 | 8 | 7 | 27 | DPANWDCQQAAWLCIIQ (DPANWDCQQAAWLCIIQ-NH2; linker 7-14 via Phenylene(1,4-NHCOCH2)2; N-terminus assumed; SMILES CC[C@H](C)[C@H](NC(=O)[C@@H]1CSCC(=O)Nc2ccc(cc2)NC(=O)CSC[C@H](NC(=O)[C@H](CC(=O)O)NC(=O)[C@H](Cc2c[nH]c3ccccc23)NC(=O)[C@H](CC(N)=O)NC(=O)[C@H](C)NC(=O)[C@@H]2CCCN2C(=O)[C@@H](N)CC(=O)O)C(=O)N[C@@H](CCC(N)=O)C(=O)N[C@@H](CCC(N)=O)C(=O)N[C@@H](C)C(=O)N[C@@H](C)C(=O)N[C@@H](Cc2c[nH]c3ccccc23)C(=O)N[C@@H](CC(C)C)C(=O)N1)C(=O)N[C@H](C(=O)N[C@@H](CCC(N)=O)C(N)=O)[C@@H](C)CC)
